According to patent US20230027639A1:

Experiments:
[1] = target: anti-CD19 CAR on CD19 CAR-T cells (the extracellular binding domain of the CAR was FMC63scfv); experiment: flow cytometry on CD19 CAR-T cells, Biotinylated Human CD19 Fc Tag detected with PE anti-Biotin; percent CAR-positive cells, replicate 2
[2] = target: anti-CD19 CAR on CD19 CAR-T cells (the extracellular binding domain of the CAR was FMC63scfv); experiment: flow cytometry on CD19 CAR-T cells, Biotinylated Human CD19 Fc Tag detected with PE anti-Biotin; percent CAR-positive cells, replicate 1
[3] = target: anti-CD19 CAR on CD19 CAR-T cells (the extracellular binding domain of the CAR was FMC63scfv); experiment: flow cytometry on CD19 CAR-T cells; mean ± SD of three parallel experiments
[4] = target: anti-CD19 CAR on CD19 CAR-T cells (the extracellular binding domain of the CAR was FMC63scfv); experiment: flow cytometry on CD19 CAR-T cells, Biotinylated Human CD19 Fc Tag detected with PE anti-Biotin; percent CAR-positive cells, replicate 3
[5] = target: anti-CD19 CAR on CD19 CAR-T cells (the extracellular binding domain of the CAR was FMC63scfv); experiment: cell-based or functional assay
[6] = target: anti-CD19 CAR on CD19 CAR-T cells (the extracellular binding domain of the CAR was FMC63scfv); experiment: flow cytometry on CD19 CAR-T cells, biotin-labelled antibody detected with PE anti-Biotin; percent CAR-positive cells, replicate 2
[7] = target: anti-CD19 CAR on CD19 CAR-T cells (the extracellular binding domain of the CAR was FMC63scfv); experiment: flow cytometry on CD19 CAR-T cells, biotin-labelled antibody detected with PE anti-Biotin; percent CAR-positive cells, replicate 1
[8] = target: anti-CD19 CAR on CD19 CAR-T cells (the extracellular binding domain of the CAR was FMC63scfv); experiment: flow cytometry on CD19 CAR-T cells, biotin-labelled antibody detected with PE anti-Biotin; percent CAR-positive cells, replicate 3

| Molecule | CAR % [1] [%] | CAR % [2] [%] | CAR % (mean of three measurements) [3] [%] | CAR % [4] [%] | killing rate of CD19+K562 cells by CAR-T cells (LDH release), effector:target 1:1, mAb 5 µg/ml (16.0% without mAb) [5] [%] | killing rate of CD19+K562 cells by CAR-T cells (LDH release), effector:target 1:1, mAb 25 µg/ml (16.0% without mAb) [5] [%] | killing rate of CD19+K562 cells by CAR-T cells (LDH release), effector:target 5:1, mAb 5 µg/ml (51.5% without mAb) [5] [%] | killing rate of CD19+K562 cells by CAR-T cells (LDH release), effector:target 5:1, mAb 25 µg/ml (51.5% without mAb) [5] [%] | CAR % [6] [%] | CAR % [7] [%] | CAR % [8] [%] |
| --- | --- | --- | --- | --- | --- | --- | --- | --- | --- | --- | --- |
| Biotinylated Human CD19, Fc Tag (ACROBiosystems, model CD19-H8259) (from UniProt P15391 20-291) (Fc fusion) | 12.3 | 10.3 | 14.2 | 20.1 | – | – | – | – | – | – | – |
| monoclonal antibody 3984-mab001-H (scFv) scFv: EIQLQQSGPELVKPGASVKVSCKASGYSFTDYTMYWVKQSHGKSLEWIGYIDPYNGGTNYSQRFKGKATLTVDKSSSTAFMHLNSLPSEDSAVYYCANTYDNYEFAYWGQGTLVTVSAGGGGSGGGGSGGGGSDIQMTQTTSSLSASLGDRVTISCRASQDISNYLNWYQQKPDGTVKLLIYYTSRLRSGVPSRFSGSGSGADYSLTISNLEQEDIATYFCQQGDTLPYTFGGGTKLEIN | – | – | – | – | 16.1 | 6.5 | 39.1 | 32.1 | – | – | – |
| biotin-labeled monoclonal antibody Bio-3984-mab001-H (scFv, biotin label (Sulfo-NHS-Biotin); labelled residues not stated) scFv: EIQLQQSGPELVKPGASVKVSCKASGYSFTDYTMYWVKQSHGKSLEWIGYIDPYNGGTNYSQRFKGKATLTVDKSSSTAFMHLNSLPSEDSAVYYCANTYDNYEFAYWGQGTLVTVSAGGGGSGGGGSGGGGSDIQMTQTTSSLSASLGDRVTISCRASQDISNYLNWYQQKPDGTVKLLIYYTSRLRSGVPSRFSGSGSGADYSLTISNLEQEDIATYFCQQGDTLPYTFGGGTKLEIN | – | – | 47.9 | – | – | – | – | – | 48.5 | 47.9 | 47.2 |
